The test system of one experiment is Mab 2G12 binding to gp120JR-FL. Description: Competition ELISA: inhibition of 2G12 binding to gp120JR-FL by carbohydrates. Details: species or system HIV-1. As to conditions: 2G12 1 μg/ml. On the procedure: Competition enzyme-linked immunosorbent assays (ELISAs) were performed to determine the relative inhibition constants of different carbohydrates on 2G12. GP120JR-FL was first captured onto microtiter plate wells (flat bottom, Costar type 3690; Corning Inc.). Subsequently serial dilutions of Man9GlcNAc2, Manα1-2Man, mannose, and other mono- and disaccharides were added to the wells in the presence of 2G12 (1 μg/ml). Subsequent blocking, washing, and detection steps were performed as described in (13).
A general note: An ELISA detects its analyte on a solid surface through an enzyme-linked reagent.
Consider `O=C(CO)[C@@H](O)[C@H](O)[C@H](O)CO` [Fructose], for which the “inhibition of 2G12 binding to gp120 (in words)” value is listed as “better inhibitor than mannose”.

Staying with this experiment, now noted: relative to Manα1-2Man; 2G12 1 μg/ml.
As to `CC(=O)N[C@H]1[C@H](O[C@H]2[C@H](O)[C@@H](NC(C)=O)C(O)O[C@@H]2CO)O[C@H](CO)[C@@H](O[C@@H]2O[C@H](CO[C@H]3O[C@H](CO[C@H]4O[C@H](CO)[C@@H](O)[C@H](O)[C@@H]4O[C@H]4O[C@H](CO)[C@@H](O)[C@H](O)[C@@H]4O)[C@@H](O)[C@H](O[C@H]4O[C@H](CO)[C@@H](O)[C@H](O)[C@@H]4O[C@H]4O[C@H](CO)[C@@H](O)[C@H](O)[C@@H]4O)[C@@H]3O)[C@@H](O)[C@H](O[C@H]3O[C@H](CO)[C@@H](O)[C@H](O)[C@@H]3O[C@H]3O[C@H](CO)[C@@H](O)[C@H](O)[C@@H]3O[C@H]3O[C@H](CO)[C@@H](O)[C@H](O)[C@@H]3O)[C@@H]2O)[C@@H]1O` (stereo partly drawn) [Man9GlcNAc2], the “inhibition of Mab 2G12 binding to gp120JR-FL compared to the disaccharide Manα1-2Man” value is reported as “over 50 fold”.

The experiment is the same for the next values; noted with them: relative to mannose; 2G12 1 μg/ml.
With `CC(=O)N[C@H]1[C@H](O[C@H]2[C@H](O)[C@@H](NC(C)=O)C(O)O[C@@H]2CO)O[C@H](CO)[C@@H](O[C@@H]2O[C@H](CO[C@H]3O[C@H](CO[C@H]4O[C@H](CO)[C@@H](O)[C@H](O)[C@@H]4O[C@H]4O[C@H](CO)[C@@H](O)[C@H](O)[C@@H]4O)[C@@H](O)[C@H](O[C@H]4O[C@H](CO)[C@@H](O)[C@H](O)[C@@H]4O[C@H]4O[C@H](CO)[C@@H](O)[C@H](O)[C@@H]4O)[C@@H]3O)[C@@H](O)[C@H](O[C@H]3O[C@H](CO)[C@@H](O)[C@H](O)[C@@H]3O[C@H]3O[C@H](CO)[C@@H](O)[C@H](O)[C@@H]3O[C@H]3O[C@H](CO)[C@@H](O)[C@H](O)[C@@H]3O)[C@@H]2O)[C@@H]1O` (stereo partly drawn) [Man9GlcNAc2], the “inhibition of Mab 2G12 binding to gp120JR-FL compared to mannose (relative IC50)” value is given as “over 200 fold”.

The target in a further experiment is HIV-1 gp120 JR-FL (HIV-1 (JR-FL)). The experiment can be described thus: ELISA, crude Fab on gp120JR-FL; apparent affinity wt/mutant x100%.
Conditions: not given
Consider Fab 2G12 mutant H D100bA, for which the % Affinity Relative to Wild Type stood at 52%.

As for Fab 2G12 mutant H D100dA, the % Affinity Relative to Wild Type turned out to be 120%.

Consider Fab 2G12 mutant H E75A, for which the % Affinity Relative to Wild Type turned out to be 1.1%.

In the case of Fab 2G12 mutant H E76A, the % Affinity Relative to Wild Type amounted to 103%.

Take Fab 2G12 mutant H F77A: the % Affinity Relative to Wild Type turned out to be 0.1%.

On to Fab 2G12 mutant H G96A, for which the % Affinity Relative to Wild Type was determined as 20%.

For the molecule Fab 2G12 mutant H H32A, the % Affinity Relative to Wild Type amounted to 0.4%.

Take Fab 2G12 mutant H I19A: the % Affinity Relative to Wild Type was determined as 0.5%.

Fab 2G12 mutant H K82bA: the % Affinity Relative to Wild Type worked out at 51%.

Turning to Fab 2G12 mutant H K95A, the % Affinity Relative to Wild Type is 170%.

As to Fab 2G12 mutant H L74A, the % Affinity Relative to Wild Type was 130%.

For Fab 2G12 mutant H L100A, the % Affinity Relative to Wild Type is 0.1%.

Fab 2G12 mutant H N100cA: the % Affinity Relative to Wild Type amounted to 0.1%.

In the case of Fab 2G12 mutant H P113A, the % Affinity Relative to Wild Type is 0.1%.

In the case of Fab 2G12 mutant H P113S, the % Affinity Relative to Wild Type was 0.1%.

As for Fab 2G12 mutant H R39A, the % Affinity Relative to Wild Type was found to be 130%.

Consider Fab 2G12 mutant H R39Q, for which the % Affinity Relative to Wild Type turned out to be 170%.

In the case of Fab 2G12 mutant H R57A, the % Affinity Relative to Wild Type is 0.1%.

For Fab 2G12 mutant H R83A, the % Affinity Relative to Wild Type worked out at 59%.

Regarding Fab 2G12 mutant H S54A, the % Affinity Relative to Wild Type was found to be 0.1%.

For Fab 2G12 mutant H S100aA, the % Affinity Relative to Wild Type is 0.1%.

In the case of Fab 2G12 mutant H T33A, the % Affinity Relative to Wild Type is 2%.

With Fab 2G12 mutant H T52aA, the % Affinity Relative to Wild Type was determined as 190%.

Take Fab 2G12 mutant H T55A: the % Affinity Relative to Wild Type was 0.1%.

As for Fab 2G12 mutant H V84A, the % Affinity Relative to Wild Type is 0.1%.

In the case of Fab 2G12 mutant H Y56A, the % Affinity Relative to Wild Type is 2%.

Turning to Fab 2G12 mutant H Y79A, the % Affinity Relative to Wild Type is 0.1%.

As to Fab 2G12 mutant L G93A, the % Affinity Relative to Wild Type is 120%.

Consider Fab 2G12 mutant L S28A, for which the % Affinity Relative to Wild Type was determined as 0.1%.

Turning to Fab 2G12 mutant L W32A, the % Affinity Relative to Wild Type is 50%.

The values above are taken from US20050003347A1, “Domain-exchanged binding molecules, methods of use and methods of production” (priority 2003, published 2005).
